Laboratory results published in patent US12551542B2, “Polymeric nanoparticles that target liver sinusoidal endothelial cells to induce antigen-specific immune tolerance” (The Regents of the University of California, priority 2019, dated 2026).
One block for each molecule: values may come before it. No end group written: not given here.

Assays:
LSECs = assay: NP-associated FITC-OVA uptake, flow cytometry; format: cell-based, mouse
Procedure: Following OVA-FITC labeling, the antigen was encapsulated in NPs as described in Example 1 Materials and Methods. LSECs and KUP5 cells were incubated with FITC-OVA or NP^FITC-OVA for the indicated time periods. After being washed in PBS, the % FITC-OVA^+ cells and the cellular mean fluorescence intensity (MFI) were analyzed in a BD LSRII (IMED) analytic flow cytometer by Flowjo® software. Panels (A, B): Kinetics of NP-mediated antigen uptake in LSECs and KUP5 cells, respectively. Panels (C, D): Histograms depicting the % and MFI of antigen-positive LSECs. Data are expressed as the mean±SEM (n=6); *p<0.05; **p<0.01; ***[…] (one-way ANOVA followed by Tukey's test).
To quantitatively evaluate antigen uptake into cells, OVA was labeled with FITC as previously described. Following the incorporation of FITC-OVA into NPs, LSECs and KUP5 cells were incubated with FITC-OVA or the labeled particles for 24 h. Cells were collected, washed with PBS, and analyzed in a BD LSRII (IMED) analytic flow cytometer. Flowjo software (Ashland, OR) was used to quantify the percentage and mean fluorescence intensity of the FITC-OVA+-labeled cells.

mice = assay: Biodistribution of DyLight680-OVA NPs after IV injection, ex vivo IVIS imaging; parameters: species or system mouse; conditions: 25 μg OVA in 500 μg NPs per animal, 24 h
Description: Panel (B): Confocal microscopy to show the intrahepatic distribution of free or encapsulated labeled OVA. […] The red and green fluorescence colors represent DyLight680-labeled OVA and isolectin B4 stained LSECs, respectively. Scale bars correspond to 50 μm. Data are expressed as the mean±SEM (n=6); *p<0.05; **p<0.01; ***[…] (one-way ANOVA followed by Tukey's test).
FIG. 17A schematically illustrates two main strategies for inducing immune tolerance. Strategy 1 depicts a liver-targeting nanoparticle for allergen delivery to LSEC in the liver, where allergen processing and presentation to naïve T-cells induce antigen-specific Foxp3^+ Tregs, which are recruited to the site of allergic inflammation in the lung. […] FIG. 17B schematically illustrates the PLGA nanoparticle synthesis process, including carrier loading with cargo (allergen, epitopes, pharmaceutical agents), by a w/o/w double emulsion method combined with solvent removal. […] The red and green fluorescence colors represent Dylight680-labeled OVA and isolectin B4 stained LSECs, respectively. […]
The near-infrared fluorescent dye, DyLight680 (ex=692, em=712), was used to label OVA, which was subsequently encapsulated in the NPs. […] The data were analyzed using Living Image software (PerkinElmer, version 4.5) and were expressed as the fluorescence intensity in the region of interest. […]

[1] = target: stabilin-2 scavenger receptor on liver sinusoidal endothelial cells (LSECs) (mouse, UniProt Q8R4U0 29-2559); assay: cell-based or functional assay
Sequence of stabilin-2 scavenger receptor on liver sinusoidal endothelial cells (LSECs) (Q8R4U0 29-2559): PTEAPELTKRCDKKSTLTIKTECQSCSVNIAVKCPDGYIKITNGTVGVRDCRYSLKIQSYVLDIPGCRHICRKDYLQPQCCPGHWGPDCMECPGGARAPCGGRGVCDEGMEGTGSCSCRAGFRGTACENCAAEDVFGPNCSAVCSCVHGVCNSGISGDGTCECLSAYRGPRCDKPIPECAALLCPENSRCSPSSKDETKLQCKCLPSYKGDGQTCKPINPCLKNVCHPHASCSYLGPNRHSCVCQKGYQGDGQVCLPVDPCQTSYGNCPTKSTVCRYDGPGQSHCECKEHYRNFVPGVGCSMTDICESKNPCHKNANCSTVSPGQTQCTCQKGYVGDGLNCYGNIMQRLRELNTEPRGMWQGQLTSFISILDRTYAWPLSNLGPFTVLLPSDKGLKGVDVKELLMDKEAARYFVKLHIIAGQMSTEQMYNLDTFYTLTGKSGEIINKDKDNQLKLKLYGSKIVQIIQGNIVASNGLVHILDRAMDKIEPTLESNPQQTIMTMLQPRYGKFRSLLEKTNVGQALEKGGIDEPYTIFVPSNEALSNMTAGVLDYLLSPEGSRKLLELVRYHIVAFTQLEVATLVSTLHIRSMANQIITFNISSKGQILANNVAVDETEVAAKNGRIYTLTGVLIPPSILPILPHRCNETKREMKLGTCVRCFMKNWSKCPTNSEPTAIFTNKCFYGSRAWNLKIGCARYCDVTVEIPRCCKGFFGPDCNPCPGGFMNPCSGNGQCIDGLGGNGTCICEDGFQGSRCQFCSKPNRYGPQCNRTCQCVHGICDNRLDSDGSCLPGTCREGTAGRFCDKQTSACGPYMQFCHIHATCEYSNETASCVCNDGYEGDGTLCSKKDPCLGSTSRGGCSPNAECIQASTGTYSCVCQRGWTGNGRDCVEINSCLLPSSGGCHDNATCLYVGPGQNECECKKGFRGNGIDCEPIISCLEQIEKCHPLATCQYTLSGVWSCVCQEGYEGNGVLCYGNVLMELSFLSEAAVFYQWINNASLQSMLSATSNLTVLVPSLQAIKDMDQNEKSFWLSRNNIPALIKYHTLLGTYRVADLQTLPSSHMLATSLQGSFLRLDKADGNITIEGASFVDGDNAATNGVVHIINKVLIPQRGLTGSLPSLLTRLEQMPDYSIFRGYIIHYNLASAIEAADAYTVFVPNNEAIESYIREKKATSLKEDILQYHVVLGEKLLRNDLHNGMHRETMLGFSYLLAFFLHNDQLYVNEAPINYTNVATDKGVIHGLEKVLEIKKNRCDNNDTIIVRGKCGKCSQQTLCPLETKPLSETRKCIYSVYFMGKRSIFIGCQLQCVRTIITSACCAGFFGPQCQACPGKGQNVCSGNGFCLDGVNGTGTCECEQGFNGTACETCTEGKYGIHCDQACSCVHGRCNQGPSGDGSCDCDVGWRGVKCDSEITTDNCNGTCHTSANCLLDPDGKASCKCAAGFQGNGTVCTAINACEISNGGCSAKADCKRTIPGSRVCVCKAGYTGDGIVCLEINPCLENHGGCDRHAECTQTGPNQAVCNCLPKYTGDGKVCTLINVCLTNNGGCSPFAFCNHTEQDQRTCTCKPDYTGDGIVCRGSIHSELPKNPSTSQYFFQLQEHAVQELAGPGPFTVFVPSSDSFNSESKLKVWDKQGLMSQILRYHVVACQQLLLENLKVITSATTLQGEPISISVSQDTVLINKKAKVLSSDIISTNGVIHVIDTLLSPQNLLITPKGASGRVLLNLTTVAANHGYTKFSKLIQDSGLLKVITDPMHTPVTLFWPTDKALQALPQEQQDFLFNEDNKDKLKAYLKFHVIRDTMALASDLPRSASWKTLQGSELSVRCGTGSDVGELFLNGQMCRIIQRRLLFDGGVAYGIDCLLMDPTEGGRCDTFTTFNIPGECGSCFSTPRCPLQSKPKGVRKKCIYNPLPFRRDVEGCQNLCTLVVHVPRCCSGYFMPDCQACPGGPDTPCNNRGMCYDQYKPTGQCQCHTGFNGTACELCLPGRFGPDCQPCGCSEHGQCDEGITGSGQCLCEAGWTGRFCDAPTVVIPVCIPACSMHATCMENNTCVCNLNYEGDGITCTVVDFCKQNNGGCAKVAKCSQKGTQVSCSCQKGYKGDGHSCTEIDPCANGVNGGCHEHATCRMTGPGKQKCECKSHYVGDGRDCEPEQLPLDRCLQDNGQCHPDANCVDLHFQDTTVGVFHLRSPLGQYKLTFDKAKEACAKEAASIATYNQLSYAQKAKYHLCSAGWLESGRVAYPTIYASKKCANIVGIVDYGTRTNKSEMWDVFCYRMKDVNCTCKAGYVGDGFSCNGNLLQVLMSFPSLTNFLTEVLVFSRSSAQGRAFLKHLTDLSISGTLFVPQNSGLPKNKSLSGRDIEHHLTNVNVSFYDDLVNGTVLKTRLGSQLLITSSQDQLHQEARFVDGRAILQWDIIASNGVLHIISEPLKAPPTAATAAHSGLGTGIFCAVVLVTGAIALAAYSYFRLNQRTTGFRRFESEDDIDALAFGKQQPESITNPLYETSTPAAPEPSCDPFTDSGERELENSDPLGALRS

[2] = target: stabilin-1 scavenger receptor on liver sinusoidal endothelial cells (LSECs) (mouse, UniProt Q8R4Y4 26-2571); assay: cell-based or functional assay
Sequence of stabilin-1 scavenger receptor on liver sinusoidal endothelial cells (LSECs) (Q8R4Y4 26-2571): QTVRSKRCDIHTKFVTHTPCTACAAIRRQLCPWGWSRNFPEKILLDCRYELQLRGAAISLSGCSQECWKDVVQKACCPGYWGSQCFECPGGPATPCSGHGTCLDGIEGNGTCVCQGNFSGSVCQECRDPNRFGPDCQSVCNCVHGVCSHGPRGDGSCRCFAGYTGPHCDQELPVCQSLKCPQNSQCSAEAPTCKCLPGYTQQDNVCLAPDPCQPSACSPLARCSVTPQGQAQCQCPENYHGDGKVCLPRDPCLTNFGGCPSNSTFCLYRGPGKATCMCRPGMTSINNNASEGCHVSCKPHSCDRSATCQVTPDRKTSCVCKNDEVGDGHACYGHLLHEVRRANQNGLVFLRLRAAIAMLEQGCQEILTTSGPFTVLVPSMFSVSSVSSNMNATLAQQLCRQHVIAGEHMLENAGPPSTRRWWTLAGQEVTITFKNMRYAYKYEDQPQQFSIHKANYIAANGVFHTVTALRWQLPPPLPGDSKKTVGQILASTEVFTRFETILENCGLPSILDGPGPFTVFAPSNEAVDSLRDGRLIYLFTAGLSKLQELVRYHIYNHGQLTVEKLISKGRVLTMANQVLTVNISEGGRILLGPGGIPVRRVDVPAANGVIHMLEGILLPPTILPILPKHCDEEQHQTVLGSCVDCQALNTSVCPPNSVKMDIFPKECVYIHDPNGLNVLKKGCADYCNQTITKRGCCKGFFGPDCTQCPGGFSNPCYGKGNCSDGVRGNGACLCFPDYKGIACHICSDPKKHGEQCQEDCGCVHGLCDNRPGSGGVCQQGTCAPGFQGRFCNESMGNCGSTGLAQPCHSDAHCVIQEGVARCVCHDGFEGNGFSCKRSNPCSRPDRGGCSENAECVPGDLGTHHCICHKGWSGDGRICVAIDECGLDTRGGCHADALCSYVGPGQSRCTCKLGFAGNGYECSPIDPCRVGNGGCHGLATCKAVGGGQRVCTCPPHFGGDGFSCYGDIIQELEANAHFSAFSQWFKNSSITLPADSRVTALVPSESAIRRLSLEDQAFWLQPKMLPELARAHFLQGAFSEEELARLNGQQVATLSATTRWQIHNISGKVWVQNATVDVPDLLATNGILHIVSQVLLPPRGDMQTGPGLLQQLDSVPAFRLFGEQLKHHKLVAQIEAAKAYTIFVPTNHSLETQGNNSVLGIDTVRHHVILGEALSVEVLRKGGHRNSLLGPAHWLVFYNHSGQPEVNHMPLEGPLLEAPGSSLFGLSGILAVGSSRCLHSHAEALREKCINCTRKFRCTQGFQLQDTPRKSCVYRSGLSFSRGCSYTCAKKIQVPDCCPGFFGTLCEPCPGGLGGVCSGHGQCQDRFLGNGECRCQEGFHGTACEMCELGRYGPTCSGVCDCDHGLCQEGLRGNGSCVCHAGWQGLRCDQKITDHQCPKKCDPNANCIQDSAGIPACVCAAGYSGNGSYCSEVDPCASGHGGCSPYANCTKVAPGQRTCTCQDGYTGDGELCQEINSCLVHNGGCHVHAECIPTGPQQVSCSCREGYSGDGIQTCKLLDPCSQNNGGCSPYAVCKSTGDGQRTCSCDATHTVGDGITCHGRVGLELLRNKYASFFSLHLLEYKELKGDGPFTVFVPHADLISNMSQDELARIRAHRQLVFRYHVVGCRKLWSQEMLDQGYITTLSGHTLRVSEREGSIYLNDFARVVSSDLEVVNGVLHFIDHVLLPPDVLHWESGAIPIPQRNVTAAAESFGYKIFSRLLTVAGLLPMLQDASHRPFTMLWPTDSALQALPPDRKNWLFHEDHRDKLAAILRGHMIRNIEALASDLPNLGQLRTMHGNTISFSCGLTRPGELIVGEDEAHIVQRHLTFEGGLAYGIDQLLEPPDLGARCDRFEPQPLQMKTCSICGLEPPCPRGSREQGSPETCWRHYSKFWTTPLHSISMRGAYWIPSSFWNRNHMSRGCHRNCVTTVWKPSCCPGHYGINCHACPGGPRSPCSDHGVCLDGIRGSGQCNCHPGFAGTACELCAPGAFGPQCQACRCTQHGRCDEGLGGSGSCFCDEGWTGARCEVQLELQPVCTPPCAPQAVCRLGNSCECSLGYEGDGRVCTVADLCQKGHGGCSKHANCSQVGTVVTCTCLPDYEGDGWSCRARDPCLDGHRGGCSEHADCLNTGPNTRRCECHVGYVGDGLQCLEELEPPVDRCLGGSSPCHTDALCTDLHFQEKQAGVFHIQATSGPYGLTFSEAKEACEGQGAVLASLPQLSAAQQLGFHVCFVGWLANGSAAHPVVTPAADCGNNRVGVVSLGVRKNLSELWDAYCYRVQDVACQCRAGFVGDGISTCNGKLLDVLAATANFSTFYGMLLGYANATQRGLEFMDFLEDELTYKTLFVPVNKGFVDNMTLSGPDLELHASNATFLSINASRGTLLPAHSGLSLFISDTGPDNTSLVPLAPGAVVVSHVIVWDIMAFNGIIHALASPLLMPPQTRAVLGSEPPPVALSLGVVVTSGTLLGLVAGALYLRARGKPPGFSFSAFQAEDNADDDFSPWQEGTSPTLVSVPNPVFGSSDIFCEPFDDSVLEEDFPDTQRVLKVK

Molecule: FITC-OVA: fluorescein isothiocyanate (FITC)-labeled OVA, not encapsulated
NP-mediated FITC-OVA uptake (OVA fluorescence intensity) (LSECs): No significant uptake

B1: non-encapsulated fluorescent OVA: DyLight680-labeled ovalbumin injected free, not encapsulated (protein, UniProt P01012 2-386, looked up)
Ovalbumin: GSIGAASMEFCFDVFKELKVHHANENIFYCPIAIMSALAMVYLGAKDSTRTQINKVVRFDKLPGFGDSIEAQCGTSVNVHSSLRDILNQITKPNDVYSFSLASRLYAEERYPILPEYLQCVKELYRGGLEPINFQTAADQARELINSWVESQTNGIIRNVLQPSSVDSQTAMVLVNAIVFKGLWEKAFKDEDTQAMPFRVTEQESKPVQMMYQIGLFRVASMASEKMKILELPFASGTMSMLVLLPDEVSGLEQLESIINFEKLTEWTSSNVMEERKIKVYLPRMKMEEKYNLTSVLMAMGITDVFSSSANLSGISSAESLKISQAVHAAHAEINEAGREVVGSAEAGVDAASVSEEFRADHPFLFCIKHIATNAVLFFGRCVSP
modifications: DyLight680 label
organ distribution of labeled OVA (IVIS) (mice): kidney

percentage of OVA-positive LSECs (flow cytometry, uptake of nanoparticle-encapsulated FITC-OVA) [1]: ~2 fold | percentage of OVA-positive LSECs (flow cytometry, uptake of nanoparticle-encapsulated FITC-OVA) [2]: ~2 fold
B2: ApoB peptide (ApoBP), RLYRKRGLK, containing a GGC tag, conjugated to the surface of OVA-encapsulating PLGA nanoparticles (peptide)
peptide: RLYRKRGLK
modifications: also: GGC tag at one end, orientation unclear, tag Cys thioether-linked to maleimide (NAEM) on PLGA nanoparticle
